Laboratory results taken from US20230063116A1 (Regeneron, published 2023).
Like-named read-outs stand apart in the source and are kept apart here.

Legend:
human VEGF165 (REGN110) [1] = target: T1, human VEGF165 (REGN110) (human, UniProt P15692 207-395); assay: SPR, Biacore, 25 C; trap captured on anti-VEGFR1 mAb surface, hVEGF165 injected
T1 construct: also called hVEGF165; hVEGF165(M1-R191)
Description: (§1) Experimental Procedure. Equilibrium dissociation constants (KD values) for human VEGF₁₆₅ binding to various purified VEGF mini-trap constructs were determined using a real-time surface plasmon resonance biosensor using a Biacore 3000 instrument. All binding studies were performed in 10 mM HEPES, 150 mM NaCl, 3 mM EDTA, and 0.05% v/v Surfactant Tween-20, pH 7.4 (HBS-ET) running buffer at 25° C. The Biacore sensor surface was first derivatized by amine coupling with a monoclonal mouse anti-VEGFR1 antibody to capture VEGF mini-trap constructs. Binding studies were performed on the human VEGF reagent, human VEGF₁₆₅ (human VEGF₁₆₅; SEQ ID NO: 31). Different concentrations of VEGF₁₆₅ reagent, prepared in HBS-ET running buffer (2 nM — 62.5 pM; 2-fold serial dilution for human VEGF₁₆₅), were injected over an anti-VEGFR1-captured VEGF mini-trap construct surface for 1.8 minutes at a flow rate of 90 μL/minute, while the dissociation of VEGF mini-trap constructs bound VEGF₁₆₅ reagent was monitored for 60 minutes in HBS-ET running buffer. Kinetic association (kₐ) and dissociation (kd) rate constants were determined by fitting the real-time sensorgrams to a 1:1 binding model using Scrubber 2.0c curve fitting software. Binding dissociation equilibrium constants (KD) and dissociative half-lives (t½) were calculated from the kinetic rate constants as: […]

[2] = target: T2, VEGF121 (hVEGF121, aa 207-327) (human, UniProt P15692 207-327); assay: cell-based or functional assay
T2 chain: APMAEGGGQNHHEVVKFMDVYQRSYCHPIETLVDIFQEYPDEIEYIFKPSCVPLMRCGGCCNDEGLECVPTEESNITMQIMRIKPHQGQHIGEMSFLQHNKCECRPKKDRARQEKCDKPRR

[3] = target: T3, VEGF110 (hVEGF110, aa 207-318) (human, UniProt P15692 207-318); assay: cell-based or functional assay
T3 sequence (looked up): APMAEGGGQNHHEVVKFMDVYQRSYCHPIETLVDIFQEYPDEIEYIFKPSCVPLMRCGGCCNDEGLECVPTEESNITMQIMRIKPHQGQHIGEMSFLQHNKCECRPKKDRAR

human VEGF165 (REGN110) [4] = target: T1, human VEGF165 (REGN110); assay: SPR, Biacore, 25 C; trap captured on anti-VEGFR1 mAb surface, hVEGF165 injected; 1:1 fit
Description: as §1

human VEGF165 (REGN110) [5] = target: T1, human VEGF165 (REGN110); assay: cell-based or functional assay
Target sequence in this assay (P15692 other isoform, or with tags, fused parts or gaps): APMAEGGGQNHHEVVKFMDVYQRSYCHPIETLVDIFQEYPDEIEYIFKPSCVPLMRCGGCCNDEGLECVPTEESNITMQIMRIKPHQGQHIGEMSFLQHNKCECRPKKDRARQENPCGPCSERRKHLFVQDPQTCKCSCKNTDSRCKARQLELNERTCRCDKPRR

[6] = target: T3, VEGF110 (hVEGF110, aa 207-318); assay: cell-based or functional assay; remark: listed apart in the source
human VEGF165 (REGN110) [7] = target: T1, human VEGF165 (REGN110); assay: SPR, Biacore 3000, 25 C; trap captured on anti-VEGFR1 mAb surface, hVEGF165 injected; 1:1 fit
[8] = target: T2, VEGF121 (hVEGF121, aa 207-327); assay: cell-based or functional assay
human VEGF165 (REGN110) [9] = target: T1, human VEGF165 (REGN110); assay: SPR, Biacore 3000, 25 C; trap captured on anti-VEGFR1 mAb surface, hVEGF165 injected
[10] = target: T2, VEGF121 (hVEGF121, aa 207-327); assay: cell-based or functional assay
[11] = target: T3, VEGF110 (hVEGF110, aa 207-318); assay: cell-based or functional assay; remark: listed apart in the source

Row | Binder | 2nM hVEGF165 Bound (human VEGF165 (REGN110) [1]) [RU] | IC50 (M), inhibition of VEGFR1 signaling (luciferase), 20 pM VEGF121 [2] [M] | IC50 (M), inhibition of VEGFR1 signaling (luciferase), 20 pM VEGF110 [3] [M] | Kd (human VEGF165 (REGN110) [4]) [nM] | koff (human VEGF165 (REGN110) [4]) [s⁻¹] | kon (human VEGF165 (REGN110) [4]) [M⁻¹ s⁻¹] | t1/2 (dissociative half-life) (human VEGF165 (REGN110) [4]) [h] | IC50 (M), inhibition of VEGFR1 signaling (luciferase), 20 pM VEGF165 (human VEGF165 (REGN110) [5]) [M] | IC50 (M), inhibition of VEGFR1 signaling (luciferase), 20 pM VEGF110 [6] [M] | Kd (human VEGF165 (REGN110) [7]) [nM] | koff (human VEGF165 (REGN110) [7]) [s⁻¹] | kon (human VEGF165 (REGN110) [7]) [M⁻¹ s⁻¹] | t½ (dissociative half-life) (human VEGF165 (REGN110) [7]) [h] | IC50 (M), inhibition of VEGFR1 signaling (luciferase), 20 pM VEGF121 [8] [M] | 100 nM hVEGF165 Bound (human VEGF165 (REGN110) [9]) [RU] | IC50 (M), inhibition of VEGFR1 signaling (luciferase), 20 pM VEGF121 [10] [M] | IC50 (M), inhibition of VEGFR1 signaling (luciferase), 20 pM VEGF110 [11] [M]
1 | REGN7992 (hVEGF minitrap-G4Sx12-hVEGF minitrap) (receptor, Monomeric single chain, no tag; also called REGN7992 (G4Sx12 linker); single chain mini-trap with (G4S)12, no tag) SDTGRPFVEMYSEIPEIIHMTEGRELVIPCRVTSPNITVTLKKFPLDTLIPDGKRIIWDSRKGFIISNATYKEIGLLTCEATVNGHLYKTNYLTHRQTNTIIDVVLSPSHGIELSVGEKLVLNCTARTELNVGIDFNWEYPSSKHQHKKLVNRDLKTQSGSEMKKFLSTLTIDGVTRSDQGLYTCAASSGLMTKKNSTFVRVHEKGGGGSGGGGSGGGGSGGGGSGGGGSGGGGSGGGGSGGGGSGGGGSGGGGSGGGGSGGGGSSDTGRPFVEMYSEIPEIIHMTEGRELVIPCRVTSPNITVTLKKFPLDTLIPDGKRIIWDSRKGFIISNATYKEIGLLTCEATVNGHLYKTNYLTHRQTNTIIDVVLSPSHGIELSVGEKLVLNCTARTELNVGIDFNWEYPSSKHQHKKLVNRDLKTQSGSEMKKFLSTLTIDGVTRSDQGLYTCAASSGLMTKKNSTFVRVHEK | 22 | 2.37e-11 | 3.42e-11 | 0.0153 | 9.7e-05 | 6.3e+06 | 1.98 |  |  |  |  |  |  |  |  |  | 
2 | REGN7483^F (homodimer mini-trap, FabRICATOR cleaved from aflibercept) (receptor, N-linked glycans at N36, N68, N123, N196 (Table C), Disulfide-linked homodimer made by IdeS cleavage of aflibercept; also called dimer mini-trap from FabRICATOR (IdeS) cleavage of REGN3) SDTGRPFVEMYSEIPEIIHMTEGRELVIPCRVTSPNITVTLKKFPLDTLIPDGKRIIWDSRKGFIISNATYKEIGLLTCEATVNGHLYKTNYLTHRQTNTIIDVVLSPSHGIELSVGEKLVLNCTARTELNVGIDFNWEYPSSKHQHKKLVNRDLKTQSGSEMKKFLSTLTIDGVTRSDQGLYTCAASSGLMTKKNSTFVRVHEKDKTHTCPPCPAPELLG |  |  |  | 0.00132 | ≥ 1e-05 | 7.59e+06 | ≥ 19.2 | 1.23e-11 | 1.04e-11 | ≤ 0.00132 | ≤ 1e-05 | 7.58e+06 | ≥ 19.2 |  |  |  | 
3 | REGN7483^R (homodimer mini-trap, recombinant) (receptor, N-linked glycans at N36, N68, N123, N196 (Table C), also called Recombinant dimer mini-trap) SDTGRPFVEMYSEIPEIIHMTEGRELVIPCRVTSPNITVTLKKFPLDTLIPDGKRIIWDSRKGFIISNATYKEIGLLTCEATVNGHLYKTNYLTHRQTNTIIDVVLSPSHGIELSVGEKLVLNCTARTELNVGIDFNWEYPSSKHQHKKLVNRDLKTQSGSEMKKFLSTLTIDGVTRSDQGLYTCAASSGLMTKKNSTFVRVHEKDKTHTCPPCPAPELLG |  |  |  | 0.00159 | ≥ 1e-05 | 6.3e+06 | ≥ 19.2 | 1.92e-11 | 1.3e-11 | ≤ 0.00158 | ≤ 1e-05 | 6.3e+06 | ≥ 19.2 |  |  |  | 
4 | REGN7850 (VEGF mini-trap-hFc …) (receptor, Recombinant homodimer; also called REGN7850 (CPPCPPC)) SDTGRPFVEMYSEIPEIIHMTEGRELVIPCRVTSPNITVTLKKFPLDTLIPDGKRIIWDSRKGFIISNATYKEIGLLTCEATVNGHLYKTNYLTHRQTNTIIDVVLSPSHGIELSVGEKLVLNCTARTELNVGIDFNWEYPSSKHQHKKLVNRDLKTQSGSEMKKFLSTLTIDGVTRSDQGLYTCAASSGLMTKKNSTFVRVHEKDKTHTCPPCPPC | 56 |  |  | 0.00155 | ≥ 1e-05 | 6.46e+06 | ≥ 19.2 | 2.99e-11 | 1.22e-11 |  |  |  |  | 1.66e-11 |  |  | 
5 | REGN7851 (VEGF mini-trap-hFc …) (receptor, Recombinant homodimer; also called REGN7851 (CPPCPPCPPC)) SDTGRPFVEMYSEIPEIIHMTEGRELVIPCRVTSPNITVTLKKFPLDTLIPDGKRIIWDSRKGFIISNATYKEIGLLTCEATVNGHLYKTNYLTHRQTNTIIDVVLSPSHGIELSVGEKLVLNCTARTELNVGIDFNWEYPSSKHQHKKLVNRDLKTQSGSEMKKFLSTLTIDGVTRSDQGLYTCAASSGLMTKKNSTFVRVHEKDKTHTCPPCPPCPPC | 51 |  |  | 0.00181 | ≥ 1e-05 | 5.51e+06 | ≥ 19.2 | 2.68e-11 | 1.45e-11 |  |  |  |  | 1.83e-11 |  |  | 
6 | REGN6824 (hVEGF minitrap-G4Sx3-hVEGF minitrap-mmH) (receptor, Monomeric single chain; also called REGN6824 (G4Sx3 linker); single chain mini-trap with (G4S)3 linker and C-terminal mmH tag) SDTGRPFVEMYSEIPEIIHMTEGRELVIPCRVTSPNITVTLKKFPLDTLIPDGKRIIWDSRKGFIISNATYKEIGLLTCEATVNGHLYKTNYLTHRQTNTIIDVVLSPSHGIELSVGEKLVLNCTARTELNVGIDFNWEYPSSKHQHKKLVNRDLKTQSGSEMKKFLSTLTIDGVTRSDQGLYTCAASSGLMTKKNSTFVRVHEKGGGGSGGGGSGGGGSSDTGRPFVEMYSEIPEIIHMTEGRELVIPCRVTSPNITVTLKKFPLDTLIPDGKRIIWDSRKGFIISNATYKEIGLLTCEATVNGHLYKTNYLTHRQTNTIIDVVLSPSHGIELSVGEKLVLNCTARTELNVGIDFNWEYPSSKHQHKKLVNRDLKTQSGSEMKKFLSTLTIDGVTRSDQGLYTCAASSGLMTKKNSTFVRVHEKEQKLISEEDLGGEQKLISEEDLHHHHHH | 33 |  |  | 0.0861 | 0.000554 | 6.44e+06 | 0.348 |  |  | 0.0861 | 0.000554 | 6.44e+06 | 0.348 |  | 33 | 2.44e-10 | 2.22e-10
7 | REGN7991 (hVEGF minitrap-G4Sx9-hVEGF minitrap) (receptor, Monomeric single chain, no tag; also called REGN7991 (G4Sx9 linker); single chain mini-trap with (G4S)9, no tag) SDTGRPFVEMYSEIPEIIHMTEGRELVIPCRVTSPNITVTLKKFPLDTLIPDGKRIIWDSRKGFIISNATYKEIGLLTCEATVNGHLYKTNYLTHRQTNTIIDVVLSPSHGIELSVGEKLVLNCTARTELNVGIDFNWEYPSSKHQHKKLVNRDLKTQSGSEMKKFLSTLTIDGVTRSDQGLYTCAASSGLMTKKNSTFVRVHEKGGGGSGGGGSGGGGSGGGGSGGGGSGGGGSGGGGSGGGGSGGGGSSDTGRPFVEMYSEIPEIIHMTEGRELVIPCRVTSPNITVTLKKFPLDTLIPDGKRIIWDSRKGFIISNATYKEIGLLTCEATVNGHLYKTNYLTHRQTNTIIDVVLSPSHGIELSVGEKLVLNCTARTELNVGIDFNWEYPSSKHQHKKLVNRDLKTQSGSEMKKFLSTLTIDGVTRSDQGLYTCAASSGLMTKKNSTFVRVHEK | 40 | 7.71e-11 | 7.88e-11 | 0.0138 | 9.79e-05 | 7.1e+06 | 1.97 |  |  |  |  |  |  |  |  |  | 
8 | REGN7080 (VEGF minitrap-G4Sx6-VEGF minitrap mmH) (receptor, Monomeric single chain; also called REGN7080 (G4Sx6 linker); single chain mini-trap with (G4S)6 linker and C-terminal mmH tag) SDTGRPFVEMYSEIPEIIHMTEGRELVIPCRVTSPNITVTLKKFPLDTLIPDGKRIIWDSRKGFIISNATYKEIGLLTCEATVNGHLYKTNYLTHRQTNTIIDVVLSPSHGIELSVGEKLVLNCTARTELNVGIDFNWEYPSSKHQHKKLVNRDLKTQSGSEMKKFLSTLTIDGVTRSDQGLYTCAASSGLMTKKNSTFVRVHEKGGGGSGGGGSGGGGSGGGGSGGGGSGGGGSSDTGRPFVEMYSEIPEIIHMTEGRELVIPCRVTSPNITVTLKKFPLDTLIPDGKRIIWDSRKGFIISNATYKEIGLLTCEATVNGHLYKTNYLTHRQTNTIIDVVLSPSHGIELSVGEKLVLNCTARTELNVGIDFNWEYPSSKHQHKKLVNRDLKTQSGSEMKKFLSTLTIDGVTRSDQGLYTCAASSGLMTKKNSTFVRVHEKEQKLISEEDLGGEQKLISEEDLHHHHHH | 36 |  |  | 0.0715 | 0.000387 | 5.41e+06 | 0.497 |  |  | 0.0715 | 0.000387 | 5.41e+06 | 0.497 |  | 36 | 1.66e-10 | 1.61e-10
